From the nanobody polyreactivity screen of Harvey et al. (2022)

assay: yeast display, Sf9 membrane polyspecificity reagent, FACS + sequencing; frameworks hold sequencing errors
Procedure, shortened: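 Using colony PCR, genes from sorted yeast display clones were amplified, then sequenced on MiSeq at 2 × 250 and filtered by CDR length. The clones had been stained with 10% biotinylated, detergent-solubilized Sf9 membrane reagent for 1 hour at 4 °C and sorted by FACS into low and high (top ~1%) gates on anti-HA and streptavidin fluorescence. Polyreactivity labels come from the gate of origin.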

Sequence	polyreactivity (PSR sort gate)
QVQLVESGGGLVQAGGSLRLSCAASGRIFVVYTMRWYRQAPGNERELVASIRGSGDSTNYADSVKGRFTISRDNAKNTVYLQMNSLKPEDTAVYYCAADLPWSRRYSYRYGYWGQGTQVTVSS	low polyreactivity
QVQLVESGGGLVQAGGSLRLSCAASGRIFVYNAMGWYRQAPGKERELVAAISKGGGSTYYADSVKGRFTISRDNAKNTVYLQMNSLKPEDTAVYYCAAVVSGRYWGKKITYDYWGQGTQVSVSS	high polyreactivity
QVQLVESGGGLVQAGGSLRLSCAASGRIFVYNTMGWYRQAPGKERELVAAITSGGNTYYADSVKGRFTISRDNAKNSVYLQMNSLKPEDTAVYYCNAYPGYDPYRRYDYWGQGTQVTVSS	high polyreactivity
QVQLVESGGGLVQAGGSLRLSCAASGRIFVYYAMGWYRQAPGKERELVAAITSGGGSTYYADSVKGRFTISRDNAKNTVYLQMNSLKPEDTAVYYCNKGYYYPYDYWGQGTQVTVSS	high polyreactivity
QVQLVESGGGLVQAGGSLRLSCAASGRIFVYYAMGWYRQAPGKERELVAAMNAGGSTNYADSVKGRFTISRDNAKNNVYLQMYSLKPEDTAVYYCAAVRRSRYSYRGYYWGQGTQVTVSS	high polyreactivity
QVQLVESGGGLVQAGGSLRLSCAASGRIFVYYAMGWYRQAPGKERELVATISSGGSTYYADSVKGRFTISRDNAKNTVYLQMNSLKPEDTAVYYCAADNVNRYLAYYYKGDYWGQGTQVTVSS	low polyreactivity
QVQLVESGGGLVQAGGSLRLSCAASGRIFWANAMGWYRQAPGKERELVATISRSGGTTYYADSVKGRFTISRDNAKNTVYLQMNSLKPEATAVYYCAAEDWSLYDYGDRLWYSPYYYWGQGTQVTVSS	high polyreactivity
QVQLVESGGGLVQAGGSLRLSCAASGRIFWDNAMGWYRQAPGKERELVAAISDSVVITYYADSVKGRFTISRDNAKNTVYLQMNSLKPEDTAVYYCNTDARYDEYDEFDYWGQGTQVTVSS	low polyreactivity
QVQLVESGGGLVQAGGSLRLSCAASGRIFWDNAMGWYRQAPGKVRELVAVMNSGDSTNYADSVKGRFTISRDNAKNTVYLQMNSLKPEDTAVYYCATDFIGVIYDYWGQGTQVTVSS	low polyreactivity
QVQLVESGGGLVQAGGSLRLSCAASGRIFWDYAMGWYRQAPGKERELVAGISYSGGSTSYADSVKGRFTISRDNAKNTVYLQMNSLKPEDTAVYYCAARPSGTFFRDYDYWGQGTQVTVSS	low polyreactivity
QVQLVESGGGLVQAGGSLRLSCAASGRIFWGSAMGWFRQAPGKERELVAAITRSGGRTYYADSVKGRFTISRDNAKNTVYLQRNSLKPDDTPVYYCAAYYWYKWGYKYGYWGQGTQVTVST	high polyreactivity
QVQLVESGGGLVQAGGSLRLSCAASGRIFWGYAMGWSRQAPGKERELVAGITYSGGSTYYADSVKGRFTISRDNAKNTVYLQMNSLKPEDTAVYYCAAAKSYRSGSWYEYWGQGTEVTVSS	high polyreactivity
QVQLVESGGGLVQAGGSLRLSCAASGRIFWGYAMGWYRQAPGKERELVAAISSGGSTNYADSVKGRFTISRDNAKNTVYLQMNSLKPEDTAVYYCAKDHAYTSAPHQYASEYYYWGQGTQVTVSS	low polyreactivity
QVQLVESGGGLVQAGGSLRLSCAASGRIFWLNAMGWYRQAPGKEREFVASITYGSDSTYYADSVKGRFTISRDNAKNTVYLHMNSLKPEDTAVYYCNREGWHYGPYGYWGQGTQVTVSS	low polyreactivity
QVQLVESGGGLVQAGGSLRLSCAASGRIFWSNAMGWYRQAPGKERELVATISSGGRTYYADSVKGRFTISRDNAKNTVYLQMNSLKPEDTAVYYCAAVTFWFWPGMDYWGQGTQVTVSS	low polyreactivity
QVQLVESGGGLVQAGGSLRLSCAASGRIFWSYAMGWYRQAPGKEREFVAVITWSGGSTYYADSVKGRFTISRDNAKNTVYLQMNSLKPEDTAVYYCAAGQWWYQVRFDYWGQGTQVTVSS	low polyreactivity
QVQLVESGGGLVQAGGSLRLSCAASGRIFWSYAMGWYRQAPGKEREFVAVITWSGGSTYYADSVKGRFTISREYAKNTVYLEMNSLKPEDTAVYYCKADYYGPYRDYGYWGQGTQVTVSS	low polyreactivity
QVQLVESGGGLVQAGGSLRLSCAASGRIFWSYGMGWYRQAPGKERELVAAITNTGDGTYYADSVKGRFTISRDNAKNTVYLQMNSLKPEDTAVYYCAVDYRGYWYWEYDYWGQGTQVTVSS	high polyreactivity
QVQLVESGGGLVQAGGSLRLSCAASGRIFWVNAMGWYRKAPGKERELVARIRGRSGSTYYADSVKGRFTISRDNAKNPVYLQMNSLKREDTAVYYCAAREFRRPDIFLRDYWGQGTQVTVSS	high polyreactivity
QVQLVESGGGLVQAGGSLRLSCAASGRIFWVYAMGWYRQAPGKEREFVADITWTGGSTYYADSVKGRFTISRDNAKNTVYLQMNSLKPEDTAVYYCAADSWSNYDYWGQGTQVTVSS	high polyreactivity
QVQLVESGGGLVQAGGSLRLSCAASGRIFWWYAMGWYRQAPGKERELVAAISTGSRTYYADSVKGRFTISRDNAKNTVYLQMNSLKPEDTAVYYCNKDYWYGYSDFDYWGQGTQVTVSS	low polyreactivity
QVQLVESGGGLVQAGGSLRLSCAASGRIFWYNAMGWYRQAPGKERELVATITSAGDTNYADSVKGRFTISRDNAKNTVFLQMNSLKPEDTAVYYCAKYYRWLITRRGSNDYWGQGTQVTVSS	high polyreactivity

Sequence	polyreactivity (PSR sort gate)
QVQLVESGGGLVQAGGSLRLSCAASGRIFWYYAMGGYRQAPGKERELVASITSGGRTKYADSVKGRFTISRDNAKNTVYLQMNSLKPEDTAVYYCAARLLIDYHADWWVAYDYWGQGTQVTVSS	low polyreactivity
QVQLVESGGGLVQAGGSLRLSCAASGRIFWYYAMGWYRQAPGKEREFVAAITRRGGSTYYADSVKGRFTISRDNAKNTVYLQMNSLKPEDTAVYYCAAVGQKRSLGYSWGQGTQVTVSS	low polyreactivity
QVQLVESGGGLVQAGGSLRLSCAASGRIFWYYGMGWYRQAPGKERELVASIRSGGSTNYADSVKGRFTISRDNAKNSVYLQMNSLKPEDTAVYYCAARPDYRYHYWGQGTQVTVSS	high polyreactivity
QVQLVESGGGLVQAGGSLRLSCAASGRIFYANAMGWYRQAPGKERELVASISTTGDSTYYADSVKGRFTISRDNAKNTDYLQMNSLKPEDTAVYYCNTRGSEYLWYGYDYWGQGTQVTVSS	low polyreactivity
QVQLVESGGGLVQAGGSLRLSCAASGRIFYAYAMGWYRQAPGKERELVAAITFSGGSTYADSVKGRFTISRDNAKNTVYLQMNSLKPEDTAVYYCAADFGRHPRDYDYYWGQGTQVTVSL	low polyreactivity
QVQLVESGGGLVQAGGSLRLSCAASGRIFYAYTMGWYRQAPGKERELVAAISGSGSTYYADSVKGRFTISRDNAKNTVYLQMNSLKPEDTAVYYCAADVTGGRKYDYWGQGTQVTVSS	low polyreactivity
QVQLVESGGGLVQAGGSLRLSCAASGRIFYDNAMGWYRQAPGKERELVAAIRIGGSTNYADSVKGRFTISRDNAKNTVYLQMNSLKPEDTAVYYCNGSDNPDSYYPDSVWGDSWGQGSQVTVSS	low polyreactivity
QVQLVESGGGLVQAGGSLRLSCAASGRIFYFNAMGWYRQAPGKEREFVASINSIGDSTYYADSVKGRFTISRDNAKNTVYLHMNSLKPEDTAVYYCNADHGVINYRLDYWGQGTQVTVSS	low polyreactivity
QVQLVESGGGLVQAGGSLRLSCAASGRIFYFNAMGWYRQAPGKERELDAAISWSGGSTYYADSVKGRFTISRDNAKNTVYLQMNSLKPEDTAVYSCATDSYRQGDYYRGRVDYWGQGTQVTVSS	low polyreactivity
QVQLVESGGGLVQAGGSLRLSCAASGRIFYFYAMGWYRQAPGKERELVASISSGSSTNYADSVKGRFTISRDNAKNTVYLQMNSLKPEDTAVYYCAAQPWHGSRARSYYWGQGTQVTVSS	high polyreactivity
QVQLVESGGGLVQAGGSLRLSCAASGRIFYGNAMGWYRQAPGKERELVAVITSSGGSTYYADSVKGRFTISRDNAKNTVYLQMNSLKPEDTAVYYCAKYYRHWYTHLGYDYWGQGTQVTVSS	high polyreactivity
QVQLVESGGGLVQAGGSLRLSCAASGRIFYGNAMGWYRQAPGKEREWVAAISSGTSTNYADSVKGRFTISRDNAKNTVFLQMNSLKPEDTAVYYCADGSYSRYLYSLYFDFDYWGQGTQVTVSS	low polyreactivity
QVQLVESGGGLVQAGGSLRLSCAASGRIFYGNTMGWYRQAPGQERELVATITRSGGSTYYADSVKGRFTISRDNAKNTVYLQMNNLKPEDTAVYYCAVGYWRLFPYGYWGQGTQVTVSS	high polyreactivity
QVQLVESGGGLVQAGGSLRLSCAASGRIFYGNVMGWYRQAPGKERELVAVITSGGNTNYADSVKGRFTISRDNAKNTVYLQMNSLKPEDTAVYYCATAVVAGVWGYDYWGQGTQVTVSS	low polyreactivity
QVQLVESGGGLVQAGGSLRLSCAASGRIFYGYAKGWYRQAPGKERELVASISRRGYSTYYADSVKGRFTISRDNAKNTVYLQMNSLKPEDTAVYYCAAGYYPFNYWCQGTQVTVSS	high polyreactivity
QVQLVESGGGLVQAGGSLRLSCAASGRIFYGYAMGWYRQAPGKERELVAAISSGGITYYADSVKGRFTISRDNAKNTVYLQMNSLKPEDTAVYYCAAEPWYKFDYDYWGQGTQVTVSS	low polyreactivity
QVQLVESGGGLVQAGGSLRLSCAASGRIFYGYAMGWYRQAPGKERELVAAISWRGGRTYYADSVKGRFTISRDNAKNTVYLQMNSLKPEDTAVYYCAVRWPSARIPVKLDYWGQGTQVTVSS	high polyreactivity
QVQLVESGGGLVQAGGSLRLSCAASGRIFYGYAMGWYRQAPGKERELVAAITSGSRTNYADSVKGRFTISRDNAKNTVYLQMNSLKPEDTAVYDCHSRYGSYLYSLVHNTRYDYWGQGTQVTVSS	low polyreactivity
QVQLVESGGGLVQAGGSLRLSCAASGRIFYGYAMGWYRQAPGKEWELVAAITDSGGITYYADSVKGRFTISRDNAKKTVYLQLNSLKPEDTAVYYCTALVRDPAWLSRVGYSGDYWGQGTQVTVSS	high polyreactivity
QVQLVESGGGLVQAGGSLRLSCAASGRIFYGYDMGWYRQAPGKERELVAAITRGVSTYYADSVKGRFTISRDNAKNTVYLQMNSLKPEDTAVYYCAADLSPYVNYWWEYYYWGQGTQVTVSS	low polyreactivity
QVQLVESGGGLVQAGGSLRLSCAASGRIFYGYTMGWYRQAPGKERELVAAITWSGGSTHYADSVKGRFTISRDNAKNTVYLQMNSLKPEDTAVYYCNARRRSVYRGLYDYWGQGTQVTVSS	high polyreactivity
